Data taken from patent US20170253660A1.

Assays:
[1] = target: human CD16 Fc receptor on NK92-MI cells (human) (UniProt P08637); experiment: cell-based or functional assay; settings: for LAN1-CD16 Potency: scale: relative to m3F8
[2] = target: human CD32 Fc receptor on NK92-MI cells (human); experiment: cell-based or functional assay; settings: for LAN1-CD32 Potency: scale: relative to m3F8

Sequence of human CD16 Fc receptor on NK92-MI cells (human) (P08637 17-254): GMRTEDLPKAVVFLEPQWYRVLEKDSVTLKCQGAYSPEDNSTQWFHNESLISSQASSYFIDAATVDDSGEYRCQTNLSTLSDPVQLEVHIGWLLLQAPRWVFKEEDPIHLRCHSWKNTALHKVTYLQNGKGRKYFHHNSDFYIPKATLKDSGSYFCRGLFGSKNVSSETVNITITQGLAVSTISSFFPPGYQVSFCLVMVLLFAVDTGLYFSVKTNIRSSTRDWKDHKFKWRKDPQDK

Antibody potency using NK92-CD16 ADCC, BE(1)N (relative potency (m3F8 = 1)) [1]	Antibody potency using NK92-CD16 ADCC, LAN1 (relative potency (m3F8 = 1)) [1]	Antibody potency using NK92-CD16 ADCC, NMB7 (relative potency (m3F8 = 1)) [1]	Antibody potency using NK92-CD16 ADCC, SHEP1 (relative potency (m3F8 = 1)) [1]	Antibody potency using NK92-CD16 ADCC, SKNLP (relative potency (m3F8 = 1)) [1]	M14-CD16 Potency (relative to m3F8) [1]	LAN1-CD16 Potency [1]	M14-CD32 Potency (relative to m3F8) [2]	LAN1-CD32 Potency [2]	Substance
1	0.4	1	1	1	1	4	6	2	14.G2a (antibody)
	4		3	8	9		21	8	ch14.18 (antibody)
1	1	1	1	1	1	1	1	1	murine 3F8 (antibody)
	0.2								heat modified m3F8 (antibody)
